# Assay results reported in patent US20090233318A1 (RECEPTOR LOGIC, published 2009).
# Target: T1, activated soluble HLA-A*0201 (PolyTest) (human)
# T1 construct: also called sHLA
# Assay: fluorescence polarization competition against 2.2 nM standard FITC-labeled peptide P5(A*0201), 40.5 µg/ml sHLA A*0201VLDL (2507)
# Procedure: After reaching equilibrium conditions, fluorescence polarization expressed in mP was measured. Values obtained at different peptide dilutions were graphed and inhibitory concentrations expressed as log [IC50]'s determined by fitting the data to a dose-response model.
# For all preparations, 1×BGG/PBS was used as buffer. […] FP values given as milli-polarization (mP) are calculated by the equation:polarization (mP)=1000(S−GP)/(S+GP), where S and P are background-subtracted intensities of the fluorescence measured in the parallel (S) and perpendicular (P) directions, respectively, and G (grating) is the instrument and assay dependent correction factor.
# Competition experiments were analyzed by plotting FPₘₐₓ (maximal polarization) values as a function of the logarithms of competitor concentrations. […] Observed inhibitory concentrations (IC₅₀) were determined by nonlinear curve fitting to a dose-response model with variable slope using the specific software Prism (Graph Pad Software Inc.; San Diego, Calif.).
row,Binder,logIC50(nM)
1,"TMTRVLQGV (Synthetic peptide; also called TMT(40)) [TMT peptide, TMTRVLQGV (hCGβ 40-48)]",3.27 log10 of nM
2,"VLQGVLPAL (Synthetic peptide; also called VLQ(44)) [VLQ peptide, VLQGVLPAL (hCGβ 44-52)]",2.96 log10 of nM
3,"GVLPALPQV (Synthetic peptide; also called GVL(47)) [GVL peptide, GVLPALPQV (hCGβ 47-55)]",2.97 log10 of nM
